Data: PMC6695453, “Peptide translocation by the lysosomal ABC transporter TAPL is regulated by coupling efficiency and activation energy” (Scientific Reports, 2019)
Side chains are listed from the residue outwards. Ends that are not written are not given here.

Columns and labels:
MRP1 = conditions: cited from earlier work
From the text: Other ABC transporters like P-glycoprotein have a biphasic substrate dependent ATPase activity. […] Basal ATPase activity of MRP1 is 3-fold stimulated by its substrate leucotriene C4, which forms contacts to both halfs o ...

[1] = target: T1, coreTAPL (core complex of the transporter associated with antigen processing-like, ABCB9) fused C-terminally to mVenus (human) (UniProt Q9NP78)
T1 sequence: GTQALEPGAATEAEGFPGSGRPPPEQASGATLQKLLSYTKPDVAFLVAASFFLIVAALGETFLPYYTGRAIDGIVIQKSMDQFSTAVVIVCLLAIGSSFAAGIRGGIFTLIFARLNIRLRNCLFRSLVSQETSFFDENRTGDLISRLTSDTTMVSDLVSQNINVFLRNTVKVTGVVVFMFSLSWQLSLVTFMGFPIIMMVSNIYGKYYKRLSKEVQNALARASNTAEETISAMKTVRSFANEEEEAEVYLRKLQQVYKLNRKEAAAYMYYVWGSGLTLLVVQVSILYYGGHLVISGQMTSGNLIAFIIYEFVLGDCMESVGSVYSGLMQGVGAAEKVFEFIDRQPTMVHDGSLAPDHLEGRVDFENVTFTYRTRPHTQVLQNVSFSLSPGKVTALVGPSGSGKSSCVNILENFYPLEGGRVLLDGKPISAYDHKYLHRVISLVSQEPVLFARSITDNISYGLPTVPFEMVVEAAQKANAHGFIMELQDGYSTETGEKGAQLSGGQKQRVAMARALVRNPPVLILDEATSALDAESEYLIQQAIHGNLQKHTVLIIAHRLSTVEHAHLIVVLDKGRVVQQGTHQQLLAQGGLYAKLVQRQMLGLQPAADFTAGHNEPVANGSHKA

[2] = target: T1, coreTAPL (core complex of the transporter associated with antigen processing-like, ABCB9) fused C-terminally to mVenus (human); remark: listed apart in the source
[3] = target: T1, coreTAPL (core complex of the transporter associated with antigen processing-like, ABCB9) fused C-terminally to mVenus (human); remark: listed apart in the source
[4] = target: T2, coreTAPL (core complex of the transporter associated with antigen processing-like, ABCB9) fused C-terminally … (human, UniProt Q9NP78 143-766); test: cell-based or functional assay
T2 sequence (looked up): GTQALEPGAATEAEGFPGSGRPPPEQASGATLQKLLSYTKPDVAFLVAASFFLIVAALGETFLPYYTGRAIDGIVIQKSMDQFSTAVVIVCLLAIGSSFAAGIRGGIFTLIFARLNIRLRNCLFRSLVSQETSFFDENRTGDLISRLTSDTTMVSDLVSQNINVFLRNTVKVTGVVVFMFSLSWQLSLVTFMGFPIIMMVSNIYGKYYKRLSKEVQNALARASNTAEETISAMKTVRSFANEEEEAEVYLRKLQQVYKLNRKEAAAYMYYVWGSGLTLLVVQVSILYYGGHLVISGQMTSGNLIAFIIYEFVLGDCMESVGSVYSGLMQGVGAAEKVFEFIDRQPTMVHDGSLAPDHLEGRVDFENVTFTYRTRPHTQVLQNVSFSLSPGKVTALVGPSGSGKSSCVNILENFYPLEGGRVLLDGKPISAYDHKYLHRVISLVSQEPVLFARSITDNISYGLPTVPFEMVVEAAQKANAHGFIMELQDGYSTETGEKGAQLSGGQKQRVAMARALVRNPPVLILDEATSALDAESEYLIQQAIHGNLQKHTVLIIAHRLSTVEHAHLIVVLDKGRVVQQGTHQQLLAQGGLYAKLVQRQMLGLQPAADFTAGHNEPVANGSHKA

[5] = target: T2, coreTAPL (core complex of the …); test: MST; competition: 100 nM 9-mer^Atto-655 peptide and 10 µM TAPL with unlabeled competitor peptide (18-mer titrated; 9-mer at 4 mM); 22 °C; Ki fitted considering competitor depletion; conditions: both partners purified
[6] = target: T2, coreTAPL (core complex of the …); test: MST; 100 nM 9-mer^Atto-655 peptide with increasing TAPL concentrations; 20 mM HEPES, 140 mM NaCl, 0.05% DDM, 15% glycerol, pH 7.5; 22 °C; one-site binding model; conditions: both partners purified

For CCCCC/C=C\C\C=C/C=C/C=C/[C@@H](SC[C@H](NC(=O)CC[C@H](N)C(=O)O)C(=O)NCC(=O)O)[C@@H](O)CCCC(=O)O [leucotriene C4], the “fold stimulation of basal ATPase activity” value (MRP1) is listed as 3 fold.

B1: fluorescein labeled 9-mer peptide RRYC^FluoresceinKSTEL (peptide)
peptide: RRYC(5‑iodoacetamidofluorescein)KSTEL
In the case of B1, the K (m(Pep)) of peptide transport into TAPL proteoliposomes, 3 mM ATP, 15 min, 37 °C [1] is reported as 15 µM, the K (m(pep)) of 9-mer transport into TAPL proteoliposomes in the presence of 3 mM GTP [2] is reported as 4.4 µM and the K (m(Pep)) of 9-mer^FL peptide transport into TAPL proteoliposomes at 24 °C, 3 mM ATP [3] is reported as 10.8 µM. For the same molecule, the K (m(Pep)) of 9-mer^FL peptide transport into TAPL proteoliposomes at 33 °C, 3 mM ATP [3] was 15.3 µM and the K (m(Pep)) of 9-mer^FL peptide transport into TAPL proteoliposomes at 42 °C, 3 mM ATP [3] was 17.3 µM.

B2: 18-mer peptide RRYQKSTELRRYQKSTEL (peptide)
peptide: RRYQKSTELRRYQKSTEL
notes: also called unlabeled 18-mer peptide; source: synthetic peptide (solid phase synthesis; Charité, Berlin)
In the case of B2, the “IC50 of inhibition of ATP hydrolysis of reconstituted TAPL by peptide (malachite green assay, 3 mM ATP, 37 °C)” value [4] is reported as 15 µM and the Ki [5] is reported as 11.8 ± 3.6 µM.

B3: fluorescein labeled branched 16-mer peptide RYCK(K)8STEL (peptide)
peptide: RYC(5‑iodoacetamidofluorescein)K([Lys-Lys-Lys-Lys-Lys-Lys-Lys-Lys])STEL
modifications: also: octa-lysine attached by isopeptide bonds
With B3 the K (m(Pep)) of peptide transport into TAPL proteoliposomes, 3 mM ATP, 15 min, 37 °C [1] was 8 µM.

B4: Atto-655 labeled 9-mer peptide RRYC^Atto-655KSTEL (peptide)
peptide: RRYC(Atto‑655 maleimide)KSTEL
notes: source: synthetic peptide (solid phase synthesis)
With B4 the Kd [6] was 5.4 ± 0.8 µM.

B5: fluorescein labeled 18-mer peptide … (peptide)
peptide: RRYQKSTELRRYC(5‑iodoacetamidofluorescein)KSTEL
For B5, the K (m(Pep)) of peptide transport into TAPL proteoliposomes, 3 mM ATP, 15 min, 37 °C [1] was 7 µM.

B6: branched 16-mer peptide RYCK(K8)STEL (peptide)
peptide: RYCK([Lys-Lys-Lys-Lys-Lys-Lys-Lys-Lys])STEL
modifications: also: octa-lysine attached by isopeptide bonds
For B6, the IC50 of inhibition of ATP hydrolysis of reconstituted TAPL by peptide (malachite green assay, 3 mM ATP, 37 °C) [1] was 22 µM.
